Target: recombinant human histone H4 (human) (UniProt P62805)
Assay: cell-based or functional assay

Escherichia coli-expressed His-tagged N-terminal domain human PTX3 (18-178 amino acids), wild-type (from UniProt P26022 18-178)
aggregation stoichiometry (protein left after removal of the aggregate, SYPRO Ruby) (mol histone H4 per mol N-terminal domain): 2

From US20150299277A1, “AGENT FOR TREATING OR PREVENTING SYSTEMIC INFLAMMATORY RESPONSE SYNDROME” (THE UNIVERSITY OF TOKYO, priority 2012, published 2015)
